Assay results as given in the supplement of paper PMC10065799, “High-throughput profiling of sequence recognition by tyrosine kinases and SH2 domains using bacterial peptide display” (eLife, 2023).

Experiments:
Jak2 = Jak2 (UniProt O60674); assay: phosphorylation enrichment, bacterial display (enrichment ratio); higher = better substrate or ligand; peptides without Tyr show the background
Fyn = Fyn (UniProt P06241); assay: as above
c-Src = assay: as above
MERTK = MERTK (UniProt Q12866); assay: as above
Fes = Fes (UniProt P07332); assay: as above
Chain of Fes (P07332 whole entry, looked up): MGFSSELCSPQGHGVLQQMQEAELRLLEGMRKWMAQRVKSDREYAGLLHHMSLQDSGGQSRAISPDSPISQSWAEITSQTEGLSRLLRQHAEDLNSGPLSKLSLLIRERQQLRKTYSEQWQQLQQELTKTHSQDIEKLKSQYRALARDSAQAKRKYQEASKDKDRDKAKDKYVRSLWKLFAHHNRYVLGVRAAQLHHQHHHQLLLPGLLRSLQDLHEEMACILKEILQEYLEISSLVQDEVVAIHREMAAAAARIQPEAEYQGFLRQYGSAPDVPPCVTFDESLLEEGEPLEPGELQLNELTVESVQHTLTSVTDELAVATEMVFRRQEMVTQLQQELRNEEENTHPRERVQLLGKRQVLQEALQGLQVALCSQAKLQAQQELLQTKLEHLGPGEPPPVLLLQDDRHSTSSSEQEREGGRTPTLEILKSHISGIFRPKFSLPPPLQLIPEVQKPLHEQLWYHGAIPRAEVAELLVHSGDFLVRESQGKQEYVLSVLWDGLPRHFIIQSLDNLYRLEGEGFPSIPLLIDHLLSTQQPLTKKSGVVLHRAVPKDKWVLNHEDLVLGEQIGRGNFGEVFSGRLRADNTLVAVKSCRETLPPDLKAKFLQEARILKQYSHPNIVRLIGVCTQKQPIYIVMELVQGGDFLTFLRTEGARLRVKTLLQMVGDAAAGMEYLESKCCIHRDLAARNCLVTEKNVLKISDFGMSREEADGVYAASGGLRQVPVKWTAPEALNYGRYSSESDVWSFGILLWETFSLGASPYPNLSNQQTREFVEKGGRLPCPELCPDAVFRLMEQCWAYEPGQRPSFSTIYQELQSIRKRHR

EPHB1 = EPHB1 (UniProt P54762); assay: as above
Fer (mouse) = assay: as above
FGFR1 = FGFR1 (UniProt P11362); assay: as above
FGFR3 = FGFR3 (UniProt P22607); assay: as above
Chain of FGFR3 (P22607 whole entry, looked up): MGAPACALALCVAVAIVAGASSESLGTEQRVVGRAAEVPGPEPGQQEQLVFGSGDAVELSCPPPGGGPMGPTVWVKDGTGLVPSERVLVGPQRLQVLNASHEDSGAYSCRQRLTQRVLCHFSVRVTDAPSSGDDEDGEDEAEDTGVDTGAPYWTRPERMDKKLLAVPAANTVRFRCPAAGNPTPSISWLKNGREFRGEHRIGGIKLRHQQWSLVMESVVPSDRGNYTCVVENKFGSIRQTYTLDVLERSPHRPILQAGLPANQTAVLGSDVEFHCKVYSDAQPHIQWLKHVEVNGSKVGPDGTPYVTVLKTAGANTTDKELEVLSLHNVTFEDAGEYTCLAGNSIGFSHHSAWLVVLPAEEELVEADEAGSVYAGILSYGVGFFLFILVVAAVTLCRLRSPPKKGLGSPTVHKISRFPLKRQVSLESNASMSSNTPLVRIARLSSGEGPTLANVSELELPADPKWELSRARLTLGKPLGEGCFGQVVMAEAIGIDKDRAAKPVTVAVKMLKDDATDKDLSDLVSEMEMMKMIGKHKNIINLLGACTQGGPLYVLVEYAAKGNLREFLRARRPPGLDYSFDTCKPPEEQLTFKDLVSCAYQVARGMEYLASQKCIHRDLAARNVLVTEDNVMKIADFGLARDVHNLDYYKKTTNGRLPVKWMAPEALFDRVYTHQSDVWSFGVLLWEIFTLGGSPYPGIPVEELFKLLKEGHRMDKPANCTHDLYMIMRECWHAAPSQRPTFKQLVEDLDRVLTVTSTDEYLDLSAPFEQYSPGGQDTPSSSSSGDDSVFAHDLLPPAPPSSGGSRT

c-Abl (mouse) = assay: as above
AncSZ = assay: as above
Hck = Hck (UniProt P08631); assay: as above
Chain of Hck (P08631 whole entry, looked up): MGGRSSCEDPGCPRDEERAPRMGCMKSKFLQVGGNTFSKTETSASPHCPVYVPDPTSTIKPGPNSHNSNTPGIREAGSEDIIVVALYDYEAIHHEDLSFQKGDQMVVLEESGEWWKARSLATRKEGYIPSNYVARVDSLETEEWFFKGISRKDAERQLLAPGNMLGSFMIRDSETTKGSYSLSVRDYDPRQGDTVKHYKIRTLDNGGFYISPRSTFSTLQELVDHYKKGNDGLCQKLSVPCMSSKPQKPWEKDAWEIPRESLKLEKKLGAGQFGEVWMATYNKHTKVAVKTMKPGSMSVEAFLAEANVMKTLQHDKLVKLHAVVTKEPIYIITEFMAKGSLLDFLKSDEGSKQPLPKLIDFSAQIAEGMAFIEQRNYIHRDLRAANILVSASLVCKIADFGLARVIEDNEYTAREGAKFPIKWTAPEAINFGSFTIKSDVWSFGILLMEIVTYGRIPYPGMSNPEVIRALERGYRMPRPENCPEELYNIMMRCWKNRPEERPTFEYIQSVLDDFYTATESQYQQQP

EPHB2 = EPHB2 (UniProt P29323); assay: as above
Chain of EPHB2 (P29323 whole entry, looked up): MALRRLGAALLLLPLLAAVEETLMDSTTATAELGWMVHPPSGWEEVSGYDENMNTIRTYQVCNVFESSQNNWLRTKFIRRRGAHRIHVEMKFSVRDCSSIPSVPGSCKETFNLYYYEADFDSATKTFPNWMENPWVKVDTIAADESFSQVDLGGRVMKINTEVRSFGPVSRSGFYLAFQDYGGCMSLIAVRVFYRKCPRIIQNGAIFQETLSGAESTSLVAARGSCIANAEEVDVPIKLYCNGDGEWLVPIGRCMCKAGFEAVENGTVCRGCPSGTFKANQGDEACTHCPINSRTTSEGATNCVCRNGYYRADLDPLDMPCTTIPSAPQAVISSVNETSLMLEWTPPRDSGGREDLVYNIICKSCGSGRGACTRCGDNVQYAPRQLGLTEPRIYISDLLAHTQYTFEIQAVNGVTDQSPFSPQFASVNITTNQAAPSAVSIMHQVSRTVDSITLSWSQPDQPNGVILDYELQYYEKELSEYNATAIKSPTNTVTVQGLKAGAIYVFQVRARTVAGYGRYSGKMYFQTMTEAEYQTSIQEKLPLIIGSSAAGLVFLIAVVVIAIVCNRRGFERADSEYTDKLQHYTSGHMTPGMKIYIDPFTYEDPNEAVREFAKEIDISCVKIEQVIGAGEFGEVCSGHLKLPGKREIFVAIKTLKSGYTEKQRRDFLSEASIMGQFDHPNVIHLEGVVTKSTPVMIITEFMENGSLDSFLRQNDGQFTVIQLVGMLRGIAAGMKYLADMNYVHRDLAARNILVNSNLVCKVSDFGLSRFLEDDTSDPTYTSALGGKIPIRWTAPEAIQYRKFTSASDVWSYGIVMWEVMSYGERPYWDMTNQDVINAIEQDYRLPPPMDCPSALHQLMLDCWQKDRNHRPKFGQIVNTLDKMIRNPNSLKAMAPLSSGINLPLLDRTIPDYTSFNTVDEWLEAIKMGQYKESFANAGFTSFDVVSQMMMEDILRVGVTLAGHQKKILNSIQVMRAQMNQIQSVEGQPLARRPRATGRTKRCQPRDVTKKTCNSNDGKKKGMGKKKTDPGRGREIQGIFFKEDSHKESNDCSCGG

Grb2 SH2 = Grb2 SH2 (UniProt P62993); assay: SH2 binding enrichment of the phosphorylated peptide, bacterial display (enrichment ratio); higher = better substrate or ligand; peptides without Tyr show the background
Chain of Grb2 SH2 (P62993 whole entry, looked up): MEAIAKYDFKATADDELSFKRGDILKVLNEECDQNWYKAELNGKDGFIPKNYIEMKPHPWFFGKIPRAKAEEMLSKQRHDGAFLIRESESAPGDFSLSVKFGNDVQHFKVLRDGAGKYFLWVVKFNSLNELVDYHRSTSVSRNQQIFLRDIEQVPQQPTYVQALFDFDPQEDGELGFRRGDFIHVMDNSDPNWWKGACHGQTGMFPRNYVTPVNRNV

SHP2-C SH2 = assay: as above
c-Src SH2 = assay: as above
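For SH2 binding enrichment of the phosphorylated peptide, bacterial display in this document: peptide library displayed on the E. coli surface as eCPX fusions, selected cells deep-sequenced, score is each peptide's frequency after selection divided by its frequency in the input.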
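For phosphorylation enrichment, bacterial display in this document: 11-residue human phosphosite peptides and single-mutation variants displayed on the E. coli surface, counted by deep sequencing, each peptide's frequency after selection divided by its frequency in the unselected input library; frequency after pTyr selection over input frequency; kinase dosed for 20-30% of maximal phosphorylation in three min.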

Chain of Jak2 (O60674 whole entry, looked up): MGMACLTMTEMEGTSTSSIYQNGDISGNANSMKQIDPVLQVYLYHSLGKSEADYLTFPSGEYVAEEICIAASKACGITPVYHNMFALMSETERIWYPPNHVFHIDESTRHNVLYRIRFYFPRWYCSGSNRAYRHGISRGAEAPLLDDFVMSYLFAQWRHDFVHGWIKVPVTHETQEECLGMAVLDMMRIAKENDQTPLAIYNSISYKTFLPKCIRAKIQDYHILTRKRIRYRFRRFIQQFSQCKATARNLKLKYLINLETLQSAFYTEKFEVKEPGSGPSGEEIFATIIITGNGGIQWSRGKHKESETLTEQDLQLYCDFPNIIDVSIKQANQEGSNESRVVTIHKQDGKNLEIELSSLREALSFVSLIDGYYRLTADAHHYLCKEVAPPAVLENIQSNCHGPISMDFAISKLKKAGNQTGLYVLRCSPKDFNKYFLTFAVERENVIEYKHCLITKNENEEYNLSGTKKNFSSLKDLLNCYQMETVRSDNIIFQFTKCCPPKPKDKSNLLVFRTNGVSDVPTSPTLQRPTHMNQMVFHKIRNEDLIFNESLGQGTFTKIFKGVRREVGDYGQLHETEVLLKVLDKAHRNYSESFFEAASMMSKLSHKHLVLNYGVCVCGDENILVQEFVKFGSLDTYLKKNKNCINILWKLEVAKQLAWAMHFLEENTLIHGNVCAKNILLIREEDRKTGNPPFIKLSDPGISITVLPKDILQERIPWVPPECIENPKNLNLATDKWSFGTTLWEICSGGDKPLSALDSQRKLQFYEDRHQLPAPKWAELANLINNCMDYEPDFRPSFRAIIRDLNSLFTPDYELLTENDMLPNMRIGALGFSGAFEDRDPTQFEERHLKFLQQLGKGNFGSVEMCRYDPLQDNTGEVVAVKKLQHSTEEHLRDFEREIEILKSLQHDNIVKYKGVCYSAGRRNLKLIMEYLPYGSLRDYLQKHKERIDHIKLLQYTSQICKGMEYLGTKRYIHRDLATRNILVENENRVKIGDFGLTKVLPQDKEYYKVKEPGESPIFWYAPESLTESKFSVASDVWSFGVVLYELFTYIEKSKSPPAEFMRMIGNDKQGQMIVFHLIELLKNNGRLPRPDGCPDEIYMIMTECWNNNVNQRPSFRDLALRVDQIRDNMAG

| Sequence | phosphorylation enrichment (Jak2) | phosphorylation enrichment (Fyn) | phosphorylation enrichment (c-Src) | phosphorylation enrichment (MERTK) | phosphorylation enrichment (Fes) | phosphorylation enrichment (EPHB1) | phosphorylation enrichment (Fer (mouse)) | phosphorylation enrichment (FGFR1) | phosphorylation enrichment (FGFR3) | phosphorylation enrichment (c-Abl (mouse)) | phosphorylation enrichment (AncSZ) | phosphorylation enrichment (Hck) | phosphorylation enrichment (EPHB2) | SH2 binding enrichment (Grb2 SH2) | SH2 binding enrichment (SHP2-C SH2) | SH2 binding enrichment (c-Src SH2) |
| --- | --- | --- | --- | --- | --- | --- | --- | --- | --- | --- | --- | --- | --- | --- | --- | --- |
| TEFIQYVRRKN [MAX_Y73_M74V_YF] | 0.521 | 0.675 | 0.473 | 0.639 | 0.626 | 0.48 | 0.483 | 0.74 | 0.653 | 0.435 | 0.66 | 0.559 | 0.551 | 0.863 | 0.609 | 0.492 |
| GGFTCYSDGKK [PROS1_Y266_C267S_YF] | 1.37 | 0.55 | 0.471 | 0.437 | 1.51 | 0.689 | 0.654 | 0.555 | 0.933 | 0.856 | 1.3 | 0.55 | 0.586 | 0.711 | 0.547 | 0.317 |
| YPLAEYTEVKT [ALDH1A3_Y497_A493P] | 0.721 | 0.433 | 0.444 | 0.326 | 0.946 | 0.563 | 0.516 | 1.1 | 0.824 | 0.607 | 1.1 | 0.538 | 0.642 | 1.22 | 0.869 | 1.78 |
| LKRCQYVTKKV [ALDOA_Y204_E207K] | 0.752 | 0.806 | 0.545 | 0.535 | 0.821 | 0.432 | 0.582 | 0.807 | 0.548 | 0.605 | 1 | 0.371 | 0.506 | 0.946 | 1.02 | 0.788 |
| DDPRRYQKFGF [OAS1_Y362_YF] | 0.674 | 0.502 | 0.321 | 0.475 | 0.667 | 0.376 | 0.414 | 0.438 | 0.528 | 0.418 | 0.593 | 0.398 | 0.425 | 1.15 | 0.909 | 0.467 |
| LMIEEYLTKEL [BAG3_Y457] | 2.83 | 0.723 | 1.18 | 0.872 | 2.04 | 0.911 | 0.629 | 0.759 | 1.14 | 1.42 | 2.23 | 0.685 | 0.993 | 0.981 | 1.16 | 0.514 |
| SLGKGYFDGGC [MC4R_Y35_S36Y_YF] | 0.889 | 0.377 | 0.481 | 0.389 | 0.924 | 0.452 | 0.35 | 0.434 | 0.611 | 0.842 | 0.922 | 0.429 | 0.529 | 0.838 | 0.704 | 0.555 |
| WGLCSYFETSK [MAGED2_Y448_R446C_YF] | 1.34 | 0.423 | 0.698 | 0.403 | 1.55 | 0.671 | 0.62 | 0.768 | 0.847 | 0.926 | 1.29 | 0.523 | 0.633 | 1.11 | 0.797 | 0.698 |
| ENSLDYGSAWA [AR_Y395_P392S] | 0.864 | 0.556 | 0.514 | 0.462 | 0.975 | 0.486 | 0.457 | 0.467 | 0.591 | 0.638 | 1.04 | 0.566 | 0.677 | 0.752 | 0.563 | 0.475 |
| DRLASYSDKVR [KRT10_Y160_L161S] | 0.503 | 0.41 | 0.445 | 0.43 | 0.553 | 0.366 | 0.322 | 0.454 | 0.419 | 0.42 | 0.578 | 0.387 | 0.365 | 1.04 | 0.667 | 0.521 |
| KNEIFYQCPDQ [FBXO3_Y223_V221I] | 1.07 | 0.748 | 0.744 | 2.55 | 1.36 | 0.688 | 4.5 | 0.928 | 1.02 | 6.62 | 2.23 | 0.998 | 1.07 | 0.774 | 0.676 | 0.746 |
| LILENYGADID [DNAH5_Y596] | 1.25 | 0.883 | 0.56 | 0.574 | 1.4 | 1.11 | 0.809 | 0.935 | 1.32 | 0.841 | 1.84 | 0.889 | 0.856 | 0.939 | 0.685 | 0.669 |
| DIMDLYNQPEL [IL36A_Y96_P101L] | 1.11 | 0.932 | 0.99 | 0.511 | 1.28 | 0.559 | 0.589 | 0.567 | 0.943 | 0.868 | 1.54 | 1.29 | 0.613 | 0.764 | 0.768 | 0.556 |
| FARNCYVAGQY [G6PD_Y107_S106C] | 0.889 | 0.437 | 0.469 | 0.49 | 1.07 | 0.55 | 0.511 | 0.443 | 0.641 | 0.83 | 1.08 | 0.524 | 0.526 | 0.709 | 0.707 | 0.469 |
| KILGTYFETGS [PAX2_Y72_R71T_YF] | 0.717 | 0.577 | 0.585 | 0.5 | 0.867 | 0.491 | 0.467 | 0.814 | 0.793 | 0.668 | 0.833 | 0.485 | 0.47 | 0.848 | 0.982 | 0.638 |
| RFVVLYDAELT [ERCC4_Y581_YF] | 1.72 | 0.657 | 0.807 | 0.979 | 1.9 | 1.38 | 0.672 | 0.841 | 0.763 | 0.876 | 1.58 | 0.91 | 1.15 | 1.61 | 1.31 | 0.837 |
